Data taken from the Immune Epitope Database (IEDB).

How the values were obtained:
[1] = biological target: HLA-A*03:01; assay: IEDB peptide-MHC binding, purified MHC/direct/fluorescence; filed as Kd, often an IC50 or EC50 that approximates it; ≥ and ≤ were set here for values at or beyond the usual limits of such assays
[2] = biological target: HLA-B*07:02; assay: as above
[3] = biological target: HLA-B*44:02; assay: as above; settings: source organism: Salmonella enterica
[4] = biological target: HLA-B*58:01; assay: as above
[5] = biological target: HLA-B*27:05; assay: as above
[6] = biological target: HLA-A*11:01; assay: as above
[7] = biological target: HLA-B*35:01; assay: as above; settings: source organism: Salmonella enterica subsp. enterica serovar Typhimurium
[8] = biological target: HLA-B*15:02; assay: as above
[9] = biological target: HLA-A*31:01; assay: as above
[10] = biological target: HLA-A*02:01; assay: as above
[11] = biological target: HLA-A*01:01; assay: as above
[12] = biological target: HLA-B*40:01; assay: as above
[13] = biological target: HLA-B*46:01; assay: as above
[14] = biological target: HLA-A*69:01; assay: as above
[15] = biological target: HLA-A*26:01; assay: as above; settings: source organism: Salmonella enterica
[16] = biological target: HLA-B*08:01; assay: as above
[17] = biological target: HLA-B*15:01; assay: as above
[18] = biological target: HLA-C*08:02; assay: as above; settings: source organism: Yersinia pestis Nepal516
[19] = biological target: HLA-C*06:02; assay: as above; settings: source organism: Yersinia pestis Nepal516
[20] = biological target: HLA-A*03:19; assay: IEDB peptide-MHC binding, purified MHC/competitive/fluorescence; filed as Kd, often an IC50 or EC50 that approximates it; ≥ and ≤ were set here for values at or beyond the usual limits of such assays; settings: source organism: Yersinia pestis Nepal516
[21] = biological target: HLA-B*45:06; assay: as above
[22] = biological target: HLA-B*83:01; assay: as above
[23] = biological target: HLA-A*68:23; assay: as above; settings: source organism: Yersinia pestis Nepal516
[24] = biological target: HLA-B*15:42; assay: as above
[25] = biological target: HLA-B*08:02; assay: IEDB peptide-MHC binding, purified MHC/direct/fluorescence; filed as Kd, often an IC50 or EC50 that approximates it; ≥ and ≤ were set here for values at or beyond the usual limits of such assays; settings: source organism: Influenza B virus (B/Beijing/184/93)
[26] = biological target: HLA-B*15:17; assay: as above
[27] = biological target: HLA-B*57:01; assay: as above
[28] = biological target: HLA-B*48:01; assay: as above
[29] = biological target: HLA-B*39:01; assay: as above
[30] = biological target: HLA-B*15:09; assay: as above
[31] = biological target: HLA-A*26:02; assay: as above
[32] = biological target: HLA-A*68:02; assay: as above
[33] = biological target: HLA-A*26:03; assay: as above
[34] = biological target: HLA-B*18:01; assay: as above; settings: source organism: Influenza A virus (A/quail/Hong Kong/FY298/00(H9N2))
[35] = biological target: HLA-B*08:03; assay: as above
[36] = biological target: HLA-A*30:01; assay: IEDB peptide-MHC binding, purified MHC/competitive/fluorescence; filed as Kd, often an IC50 or EC50 that approximates it; ≥ and ≤ were set here for values at or beyond the usual limits of such assays
[37] = biological target: HLA-A*26:01; assay: as above; settings: source organism: Variola virus
[38] = biological target: HLA-C*12:03; assay: IEDB peptide-MHC binding, purified MHC/direct/fluorescence; filed as Kd, often an IC50 or EC50 that approximates it; ≥ and ≤ were set here for values at or beyond the usual limits of such assays; settings: source organism: Escherichia coli O157:H7 str. EDL933
[39] = biological target: HLA-B*73:01; assay: as above; settings: source organism: Homo sapiens
[40] = biological target: HLA-A*32:07; assay: IEDB peptide-MHC binding, purified MHC/competitive/fluorescence; filed as Kd, often an IC50 or EC50 that approximates it; ≥ and ≤ were set here for values at or beyond the usual limits of such assays; settings: source organism: Homo sapiens
[41] = source organism: Salmonella enterica
[42] = source organism: Salmonella enterica subsp. enterica serovar Typhimurium
[43] = source organism: Yersinia pestis
[44] = source organism: Yersinia pestis Nepal516
[45] = source organism: Influenza A virus (A/quail/Hong Kong/FY298/00(H9N2))
[46] = source organism: Influenza B virus (B/Beijing/184/93)
[47] = source organism: Escherichia coli O157:H7
[48] = source organism: Escherichia coli O157:H7 str. EC869

Sequence: MQQSGDEAF
- Kd [1, 41]: ≥ 20 µM
- Kd [2, 41]: ≥ 20 µM
- Kd [3]: ≥ 20 µM
- Kd [4, 41]: ≥ 20 µM
- Kd [5, 41]: ≥ 20 µM
- Kd [6, 41]: ≥ 20 µM
- Kd [7]: 0.147 µM
- Kd ([8]; source organism: Salmonella enterica subsp. enterica serovar Typhimurium str. LT2): 0.032 µM
- Kd [9, 41]: ≥ 20 µM
- Kd [10, 41]: ≥ 20 µM
- Kd [11, 41]: ≥ 20 µM
- Kd [12, 42]: 1.01 µM
- Kd [13, 41]: ≥ 20 µM
- Kd [14, 41]: ≥ 20 µM
- Kd [15]: ≥ 20 µM
- Kd [16, 41]: ≥ 20 µM
- Kd [17, 42]: 0.2 µM

Sequence: TVYPKTHYV
- Kd [1, 43]: 4.18 µM
- Kd [18]: ≥ 20 µM
- Kd [19]: 0.035 µM
- Kd [4, 43]: 3.63 µM
- Kd [6, 43]: 0.048 µM
- Kd [9, 43]: 0.178 µM
- Kd [10, 43]: 0.0415 µM
- Kd [14, 43]: 0.0114 µM
- Kd [17, 43]: 2.01 µM
- Kd [20]: 0.201 µM
- Kd [21, 44]: ≥ 5 µM
- Kd [22, 44]: ≥ 5 µM
- Kd [23]: ≤ 0.0001 µM
- Kd [24, 44]: ≥ 5 µM

Sequence: TKDAERGKL
- Kd [1, 45]: ≥ 20 µM
- Kd [2, 45]: ≥ 20 µM
- Kd [25]: ≥ 20 µM
- Kd [26, 45]: ≥ 20 µM
- Kd [27, 45]: ≥ 20 µM
- Kd [28, 45]: ≥ 20 µM
- Kd [29, 45]: ≥ 20 µM
- Kd [30, 46]: ≥ 10 µM
- Kd [4, 45]: ≥ 20 µM
- Kd [5, 45]: ≥ 20 µM
- Kd [10, 45]: ≥ 20 µM
- Kd [31, 46]: ≥ 20 µM
- Kd [32, 45]: ≥ 20 µM
- Kd [11, 45]: ≥ 20 µM
- Kd [33, 46]: ≥ 20 µM
- Kd [12, 45]: ≥ 20 µM
- Kd [13, 45]: ≥ 20 µM
- Kd [34]: ≥ 20 µM
- Kd [14, 45]: ≥ 20 µM
- Kd [16, 46]: ≥ 20 µM
- Kd [17, 45]: ≥ 20 µM

Sequence: ILQDRIRMY
- Kd ([2]; source organism: Cowpox virus): ≥ 20 µM
- Kd ([26]; source organism: Cowpox virus): 0.737 µM
- Kd ([27]; source organism: Cowpox virus): ≥ 20 µM
- Kd ([28]; source organism: Cowpox virus): ≥ 20 µM
- Kd ([30]; source organism: Variola virus): ≥ 20 µM
- Kd ([4]; source organism: Cowpox virus): ≥ 20 µM
- Kd ([5]; source organism: Cowpox virus): ≥ 20 µM
- Kd ([6]; source organism: Cowpox virus): ≥ 20 µM
- Kd ([8]; source organism: Variola virus): 0.02 µM
- Kd ([9]; source organism: Cowpox virus): ≥ 20 µM
- Kd ([10]; source organism: Cowpox virus): ≥ 20 µM
- Kd ([32]; source organism: Cowpox virus): ≥ 20 µM
- Kd ([11]; source organism: Cowpox virus): ≥ 20 µM
- Kd ([33]; source organism: Variola virus): ≥ 20 µM
- Kd ([13]; source organism: Cowpox virus): ≥ 20 µM
- Kd ([35]; source organism: Variola virus): ≥ 20 µM
- Kd ([14]; source organism: Cowpox virus): ≥ 20 µM
- Kd ([16]; source organism: Variola virus): ≥ 20 µM
- Kd ([17]; source organism: Cowpox virus): 0.126 µM
- Kd ([36]; source organism: Variola virus): ≥ 20 µM
- Kd [37]: ≥ 20 µM

Sequence: YQAFRTKVH
- Kd [1, 47]: ≥ 20 µM
- Kd [2, 47]: ≥ 20 µM
- Kd [26, 47]: ≥ 20 µM
- Kd [27, 47]: ≥ 20 µM
- Kd [28, 47]: ≥ 20 µM
- Kd [29, 48]: ≥ 20 µM
- Kd [30, 48]: ≥ 20 µM
- Kd [4, 47]: ≥ 20 µM
- Kd [38]: 0.204 µM
- Kd [5, 47]: ≥ 20 µM
- Kd [6, 47]: ≥ 20 µM
- Kd [8, 47]: ≥ 20 µM
- Kd [9, 47]: ≥ 20 µM
- Kd [10, 47]: ≥ 20 µM
- Kd [31, 48]: ≥ 20 µM
- Kd [32, 47]: ≥ 20 µM
- Kd [11, 47]: ≥ 20 µM
- Kd [13, 47]: ≥ 20 µM
- Kd [35, 48]: ≥ 20 µM
- Kd [14, 47]: ≥ 20 µM
- Kd [16, 48]: ≥ 20 µM
- Kd [17, 47]: 0.01 µM
- Kd ([36]; source organism: Escherichia coli O157:H7 str. EDL933): ≥ 20 µM

Sequence: MAWLFFWAI
- Kd [39]: ≥ 20 µM
- Kd ([21]; source organism: Homo sapiens): ≥ 5 µM
- Kd ([22]; source organism: Homo sapiens): ≥ 5 µM
- Kd [40]: 3.39 µM
- Kd ([24]; source organism: Homo sapiens): ≥ 5 µM
